Test results published in patent US6399759.

Biological target: T1, Soli E2 (Solenopsis invicta)
T1 sequence: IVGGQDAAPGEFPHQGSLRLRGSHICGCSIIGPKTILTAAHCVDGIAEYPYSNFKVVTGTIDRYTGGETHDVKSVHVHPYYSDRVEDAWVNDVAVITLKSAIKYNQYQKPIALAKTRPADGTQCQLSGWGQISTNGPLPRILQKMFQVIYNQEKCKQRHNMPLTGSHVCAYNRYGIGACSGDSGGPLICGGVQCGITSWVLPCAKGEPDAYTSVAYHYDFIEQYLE
Assay: cell-based or functional assay

Sequence of α-1-Proteinase Inhibitor (P01009 25-418 limits assumed): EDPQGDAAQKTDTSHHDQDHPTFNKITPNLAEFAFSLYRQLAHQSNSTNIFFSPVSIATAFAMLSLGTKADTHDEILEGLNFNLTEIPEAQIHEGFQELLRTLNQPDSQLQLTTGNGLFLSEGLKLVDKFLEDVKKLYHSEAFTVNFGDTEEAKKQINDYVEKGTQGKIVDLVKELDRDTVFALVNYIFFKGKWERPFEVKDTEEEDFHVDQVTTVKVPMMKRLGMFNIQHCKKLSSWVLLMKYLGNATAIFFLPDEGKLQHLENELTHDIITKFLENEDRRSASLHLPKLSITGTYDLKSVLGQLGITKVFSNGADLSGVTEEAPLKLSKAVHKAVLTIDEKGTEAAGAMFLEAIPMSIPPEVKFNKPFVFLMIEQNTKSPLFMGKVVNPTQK

Question: Boc-Ala-Pro-Val-^p(OPh)2 (peptide) was tested. Which Max Inhibition Rate/IC50 did it give?
Answer: The Max Inhibition Rate/IC50 was 666.

Question: Which Max Inhibition Rate/IC50 does the source give for Boc-Val-Pro Val-^p(OPh)2 (peptide) here?
Answer: The Max Inhibition Rate/IC50 was 735.

Question: For Canadian Goose OM, which IC50 is on record?
Answer: The IC50 was 7.68 nM.

Question: Which IC50 does the source give for “Canadian Goose OM Domain III (from UniProt P68393 1-54)” here?
Answer: The IC50 was 27.3 nM.

Question: With Domestic Goose OM as the substance, how does the IC50 read?
Answer: Its IC50 is 6.03 nM.

Question: Which IC50 does the source give for “Domestic Goose OM Domain III (from UniProt P68389 1-54)” here?
Answer: The IC50 was 5.58 nM.

Question: For Eglin C (from UniProt P01051 1-70), which IC50 is on record?
Answer: The IC50 was 1.89 nM.

Question: How did the IC50 turn out when Potato Inhibitor I was run?
Answer: Its IC50 is 9.13 nM.

Question: Potato Inhibitor II was tested. Which IC50 did it give?
Answer: The IC50 was 10.1 nM.

Question: How did the Max Inhibition Rate/IC50 turn out when Z-Ala-Val-^p(OPh)2 (peptide) was run?
Answer: The Max Inhibition Rate/IC50 was 27.2.

Question: How did the Max Inhibition Rate/IC50 turn out when Z-Gly-Leu-Phe-CK (peptide) was run?
Answer: The Max Inhibition Rate/IC50 was less than 0.1.

Question: How did the Max Inhibition Rate/IC50 turn out when Z-Leu-Phe-^p(OPh)2 (peptide) was run?
Answer: The Max Inhibition Rate/IC50 was less than 0.1.

Question: How did the Max Inhibition Rate/IC50 turn out when Z-Phe-Leu-Phe-^p(OPh)2 (peptide) was run?
Answer: The Max Inhibition Rate/IC50 was less than 0.1.

Question: Which Max Inhibition Rate/IC50 does the source give for Z-Phe-Phe-^p(OPh)2 (peptide) here?
Answer: Its Max Inhibition Rate/IC50 is less than 0.1.

Question: Z-Pro-Val-^p(OPh)2 (peptide) was tested. Which Max Inhibition Rate/IC50 did it give?
Answer: The Max Inhibition Rate/IC50 was 36.6.

Question: For Z-Val-Val-^p(OPh)2 (peptide), which Max Inhibition Rate/IC50 is on record?
Answer: The Max Inhibition Rate/IC50 was 76.8.

Question: How did the IC50 turn out when “α-1-Proteinase Inhibitor (from UniProt P01009 25-418)” was run?
Answer: Its IC50 is 0.604 nM.
